Source: article PMC7612745 (Nature, 2019)
Where no end group is shown, it is not given here.

T1: Thermus thermophilus multidrug resistance proteins A and B (TmrAB), wild type heterodimer (Thermus thermophilus, UniProt Q72J05;Q72J04)
T1 sequence 1: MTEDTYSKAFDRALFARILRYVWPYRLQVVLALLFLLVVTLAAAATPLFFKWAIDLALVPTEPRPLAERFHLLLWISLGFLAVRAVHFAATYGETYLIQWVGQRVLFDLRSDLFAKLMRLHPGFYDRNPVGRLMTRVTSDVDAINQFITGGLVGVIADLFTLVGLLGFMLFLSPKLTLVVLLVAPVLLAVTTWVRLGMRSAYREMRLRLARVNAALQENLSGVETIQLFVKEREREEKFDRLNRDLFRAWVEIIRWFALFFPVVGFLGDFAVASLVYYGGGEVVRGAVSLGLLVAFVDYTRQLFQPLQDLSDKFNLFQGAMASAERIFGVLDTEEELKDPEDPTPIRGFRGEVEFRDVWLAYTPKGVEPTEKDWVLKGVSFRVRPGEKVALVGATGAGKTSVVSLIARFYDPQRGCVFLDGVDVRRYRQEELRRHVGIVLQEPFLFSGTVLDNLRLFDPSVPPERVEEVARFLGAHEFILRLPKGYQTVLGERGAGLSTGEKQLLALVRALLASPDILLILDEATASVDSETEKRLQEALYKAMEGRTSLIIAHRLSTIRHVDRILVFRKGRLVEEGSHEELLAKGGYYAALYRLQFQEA
T1 sequence 2: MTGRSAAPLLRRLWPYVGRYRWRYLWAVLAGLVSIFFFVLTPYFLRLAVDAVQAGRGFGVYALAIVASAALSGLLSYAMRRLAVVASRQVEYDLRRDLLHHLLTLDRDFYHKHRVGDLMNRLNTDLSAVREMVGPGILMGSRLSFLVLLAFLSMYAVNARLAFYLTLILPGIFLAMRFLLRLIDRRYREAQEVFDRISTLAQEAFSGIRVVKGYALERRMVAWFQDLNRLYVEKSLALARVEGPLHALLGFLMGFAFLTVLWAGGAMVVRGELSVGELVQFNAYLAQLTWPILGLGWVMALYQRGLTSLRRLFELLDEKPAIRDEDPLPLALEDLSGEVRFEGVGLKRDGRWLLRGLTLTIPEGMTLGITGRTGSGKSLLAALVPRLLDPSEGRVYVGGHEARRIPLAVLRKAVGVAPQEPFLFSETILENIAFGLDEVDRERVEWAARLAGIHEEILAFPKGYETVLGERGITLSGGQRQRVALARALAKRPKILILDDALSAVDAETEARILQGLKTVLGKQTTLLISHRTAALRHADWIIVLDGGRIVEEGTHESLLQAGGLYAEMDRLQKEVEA


Legend:
[1] = biological target: T1, Thermus thermophilus multidrug …; assay: fluorescence polarisation
[2] = biological target: isolated nucleotide-binding domain of TmrB (NBD of TmrB) (Thermus thermophilus HB27, UniProt Q72J04); assay: SEC

Binder	binding result [1]	binding result [2]
RRYC(fluorescein)KSTEL [fluorescent peptide RRY(C^Fluorescein)KSTEL (C4F)]	binds	
Nb9F10, TmrAB-specific nanobody (alpaca) (VHH) VHH: QLQLVESGGGLVQPGDSLRLSCAVSGSALDYNAIGWFRQAPGKEREGVACISKITGNTAYADSVKGRFTISRDNAKNTVHLQMNSLKPEDTAVYYCATVTAVLLPGRCVPGKYWGQGTPVTVSS		binds
